Measured values as given in US20180371091A1 (JOUNCE THERAPEUTICS, published 2018).

Key:
[1] = target: T1, monovalent, heterodimeric human ICOS-Fc (human); experiment: BLI (Octet RED96), monovalent, monomeric ICOS; mean ± SEM of 6 experiments
T1 construct: Make-up of the heterodimer is not described; also called Monomeric hICOS; monomeric form of human ICOS; not shown: The human IgG1 Fc fused to ICOS, and the partner Fc chain of the heterodimer
T1 chain: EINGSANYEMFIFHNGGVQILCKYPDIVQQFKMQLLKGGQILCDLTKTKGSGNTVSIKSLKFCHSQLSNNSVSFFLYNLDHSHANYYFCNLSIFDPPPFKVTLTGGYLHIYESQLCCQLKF
Procedure: (§1) The affinity of a humanized antibody having the variable regions of 37A10S713 for monomeric forms of ICOS from human, cynomolgus monkey and rat was measured by Bio-Layer Interferometry (BLI) technology (ForteBio Octet® RED96) and KD's are shown in Table 5. […] Functionality of binding was confirmed by assessing potency of inducing proliferation of primary CD4+ T cells isolated from each species.

[2] = target: T2, monomeric form of cynomolgus monkey ICOS (cynomolgus monkey, UniProt Q9Y6W8 21-140 (human entry), limits assumed); experiment: as above
T2 chain: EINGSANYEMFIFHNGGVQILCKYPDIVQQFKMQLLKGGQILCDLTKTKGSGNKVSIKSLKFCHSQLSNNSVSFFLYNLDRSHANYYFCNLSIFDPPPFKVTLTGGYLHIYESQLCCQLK
Procedure: as §1

[3] = target: T3, monomeric form of rat ICOS (rat, UniProt Q9R1T7 21-145, limits assumed); experiment: as above
T3 sequence: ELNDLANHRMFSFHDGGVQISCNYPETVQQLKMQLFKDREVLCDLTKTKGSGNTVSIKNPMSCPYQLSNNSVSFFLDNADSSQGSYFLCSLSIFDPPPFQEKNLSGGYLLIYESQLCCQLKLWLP
Procedure: as §1

[4] = target: T4, human ICOS (full length, on cells) (human, UniProt Q9Y6W8 21-199); experiment: cell-based ELISA on fixed, permeabilised CHO cells expressing human ICOS, chemiluminescence (RLU)
T4 construct: also called CHO-hICOS; human ICOS+ CHO cells
T4 sequence: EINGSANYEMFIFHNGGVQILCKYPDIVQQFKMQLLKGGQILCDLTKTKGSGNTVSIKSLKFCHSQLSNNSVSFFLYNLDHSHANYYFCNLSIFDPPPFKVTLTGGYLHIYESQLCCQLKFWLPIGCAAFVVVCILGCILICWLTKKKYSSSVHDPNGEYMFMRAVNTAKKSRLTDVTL
Procedure: Chinese Hamster ovary (CHO) cells stably transfected with ICOS overexpressing plasmid (CHO-ICOS) or control plasmid (CHO-vector) were used to screen positive clones from the peptide ELISA assay using established protocols. Briefly, cells grown in 96 well plates were fixed and permeabilized using 10% formalin with 0.1% Triton X-100. Following blocking, cells were incubated with primary antibody, followed by HRP-conjugated anti-mouse antibody. Detection was carried out using chemiluminescence substrate. Commercial anti-ICOS antibody, SP98 (Spring Biosciences) was used as a positive control and mouse IgG1 was used as a negative control for the assay.

[5] = target: T5, mouse ICOS-hFc (homodimeric, bivalent) (mouse; human, UniProt Q9WVS0 21-142); experiment: BLI
T5 construct: also called mICOS-hFc; mouse ICOS-Fc; not shown: human IgG1 Fc (IgG1 backbone)
T5 sequence: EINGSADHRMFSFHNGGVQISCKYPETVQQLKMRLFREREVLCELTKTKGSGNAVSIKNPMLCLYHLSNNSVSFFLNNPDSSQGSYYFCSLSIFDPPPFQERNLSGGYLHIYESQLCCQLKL
Procedure: (§2) Cross-reactivity measurements were conducted using BLI technology with antibody panels being screened for binding to human, mouse, and cynomolgus ICOS-Fc fusions (homodimeric, bivalent forms).

[6] = target: T6, mouse ICOS (full length, on cells) (mouse, UniProt Q9WVS0 21-200); experiment: flow cytometry on ICOS+ CHO cells
T6 construct: also called CHO-mICOS; mouse ICOS+ CHO cells
T6 sequence: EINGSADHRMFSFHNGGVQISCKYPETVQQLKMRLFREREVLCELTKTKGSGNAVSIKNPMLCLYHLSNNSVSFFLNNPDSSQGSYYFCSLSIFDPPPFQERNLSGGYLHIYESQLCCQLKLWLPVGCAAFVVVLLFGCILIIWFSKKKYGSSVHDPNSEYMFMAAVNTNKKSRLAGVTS
From the text: To assess specificity, binding to human ICOS+ CHO cells and mouse ICOS+ CHO cells was individually analyzed by flow cytometry. As a control to screen out pan-reactive antibodies, staining on CHO cells lacking ICOS receptor expression was also examined. All of the selected antibodies bound to human and mouse ICOS+ CHO cells, and not to CHO cells lacking ICOS expression.

[7] = target: T7, human ICOS-hFc (homodimeric, bivalent) (human, UniProt Q9Y6W8 21-141); experiment: BLI, bivalent binding to homodimeric ICOS-Fc
T7 construct: also called hICOS-Fc; hICOS-hFc; not shown: human IgG1 Fc (IgG1 backbone)
T7 sequence: T1 chain
Procedure: as §2

[8] = target: T8, cynomolgus ICOS-Fc (homodimeric, bivalent) (cynomolgus monkey, UniProt Q9Y6W8 21-140 (human entry)); experiment: BLI, bivalent binding to homodimeric ICOS-Fc
T8 construct: also called cynoICOS-Fc; cyno ICOS-Fc; not shown: human IgG1 Fc (IgG1 backbone)
T8 chain: T2 chain
Procedure: as §2

[9] = target: T9, human CD28 Fc fusion (dimeric) (human, UniProt P10747 19-152); experiment: binding to dimeric Fc fusions of CD28 family members
T9 construct: not shown: Fc part not described
T9 sequence (P10747 19-152): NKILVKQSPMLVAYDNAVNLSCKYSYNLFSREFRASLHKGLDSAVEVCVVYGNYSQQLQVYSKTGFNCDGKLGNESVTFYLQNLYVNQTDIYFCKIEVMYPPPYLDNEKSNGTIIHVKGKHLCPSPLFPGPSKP
Procedure: (§3) To further assess the specificity of the anti-ICOS antibodies, the antibodies were screened for binding to additional members of the CD28 protein family (CD28, BTLA, PD-1 and CTLA-4). […] Specifically, binding to Fc fusions (of CD28, BTLA, PD-1 and CTLA-4) in dimeric forms was evaluated, and no binding was observed. For a subset of the CD28 family members, mouse or human protein was over-expressed on the surface of HEK293 and CHOK1 cells. No binding of antibody above background relative to untransduced parental cells was observed.

[10] = target: T10, mouse CD28 Fc fusion (dimeric) (mouse, UniProt P31041 20-150); experiment: as above
T10 construct: not shown: Fc part not described
T10 sequence (looked up): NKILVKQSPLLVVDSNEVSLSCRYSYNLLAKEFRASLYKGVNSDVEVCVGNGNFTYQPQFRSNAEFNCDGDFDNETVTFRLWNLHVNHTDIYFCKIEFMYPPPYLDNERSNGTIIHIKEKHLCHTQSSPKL
Procedure: as §3

[11] = target: T11, human BTLA Fc fusion (dimeric) (human, UniProt Q7Z6A9 31-157); experiment: as above
T11 construct: not shown: Fc part not described
T11 sequence (looked up): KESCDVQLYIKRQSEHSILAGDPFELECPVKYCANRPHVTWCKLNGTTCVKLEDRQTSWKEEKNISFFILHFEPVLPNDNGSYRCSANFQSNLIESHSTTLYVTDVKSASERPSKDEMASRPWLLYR
Procedure: as §3

[12] = target: T12, mouse BTLA Fc fusion (dimeric) (mouse, UniProt Q7TSA3 30-183); experiment: as above
T12 construct: not shown: Fc part not described
T12 sequence (looked up): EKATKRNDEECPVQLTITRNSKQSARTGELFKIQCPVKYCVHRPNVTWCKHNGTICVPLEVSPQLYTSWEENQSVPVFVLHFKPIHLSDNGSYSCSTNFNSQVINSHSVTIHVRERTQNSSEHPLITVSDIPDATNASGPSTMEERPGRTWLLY
Procedure: as §3

[13] = target: T13, human PD-1 Fc fusion (dimeric) (human, UniProt Q15116 25-167); experiment: as above
T13 construct: not shown: Fc part not described
T13 sequence (Q15116 25-167): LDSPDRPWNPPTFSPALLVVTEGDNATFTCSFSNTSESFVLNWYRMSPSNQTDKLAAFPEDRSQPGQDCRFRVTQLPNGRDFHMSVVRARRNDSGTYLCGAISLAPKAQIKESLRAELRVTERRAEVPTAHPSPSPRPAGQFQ
Procedure: as §3

[14] = target: T14, mouse PD-1 Fc fusion (dimeric) (mouse, UniProt Q02242 25-167); experiment: as above
T14 construct: not shown: Fc part not described
T14 sequence (looked up): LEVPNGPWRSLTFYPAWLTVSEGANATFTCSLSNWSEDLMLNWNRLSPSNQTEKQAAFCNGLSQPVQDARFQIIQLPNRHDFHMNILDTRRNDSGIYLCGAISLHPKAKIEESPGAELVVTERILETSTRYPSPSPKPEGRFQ
Procedure: as §3

[15] = target: T15, human CTLA-4 Fc fusion (dimeric) (human, UniProt P16410 37-162); experiment: as above
T15 construct: not shown: Fc part not described
T15 sequence (looked up): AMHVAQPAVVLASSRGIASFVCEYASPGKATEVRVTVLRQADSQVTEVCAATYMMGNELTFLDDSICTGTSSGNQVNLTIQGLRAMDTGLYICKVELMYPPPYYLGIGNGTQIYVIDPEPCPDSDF
Procedure: as §3

[16] = target: T16, mouse CTLA-4 Fc fusion (dimeric) (mouse, UniProt P09793 36-162); experiment: as above
T16 construct: not shown: Fc part not described
Procedure: as §3

[17] = target: T1, monovalent, heterodimeric human ICOS-Fc; experiment: BLI (Octet RED96), IgG vs monovalent heterodimeric ICOS-Fc
Procedure: (§4) Affinity measurements were conducted using Bio-Layer Interferometry (BLI) technology (ForteBio Octet® RED96). The monovalent affinities were generated with IgG versions of the antibodies with monovalent, heterodimeric forms of the ICOS receptor. The avid affinities were generated using full-length IgGs against homodimeric forms of the ICOS receptor.

[18] = target: T7, human ICOS-hFc (homodimeric, bivalent); experiment: BLI (Octet RED96), full-length IgG vs homodimeric ICOS-Fc (avid)
Procedure: as §4

[19] = target: T7, human ICOS-hFc (homodimeric, bivalent); experiment: BLI (Octet RED96), full-length IgG vs homodimeric ICOS-Fc (avid); bivalent (homodimeric) hICOS, avid; not monomeric hICOS
Procedure: as §4

B1: 37A10S713 (antibody, V domains shown)
VH: EVQLVESGGGLVQPGGSLRLSCAASGFTFSDYWMDWVRQAPGKGLVWVSNIDEDGSITEYSPFVKGRFTISRDNAKNTLYLQMNSLRAEDTAVYYCTRWGRFGFDSWGQGTLVTVSS
VL: DIVMTQSPDSLAVSLGERATINCKSSQSLLSGSFNYLTWYQQKPGQPPKLLIFYASTRHTGVPDRFSGSGSGTDFTLTISSLQAEDVAVYYCHHHYNAPPTFGPGTKVDIK
notes: also called humanized antibody having the variable regions of 37A10S713; 37A10S713-hIgG1
Question: Which results are given for B1?
Answer: Kd [1]: 1.5 nM; Kd [2]: 0.66 nM; Kd [3]: 7.2 nM

B2: 2M13 (antibody, V domains shown)
VH: EVQLQQSGAELVRPGAVVKLSCKASGFDIKDYYMHWVQQRPEQGLEWIGWIDPENGNAVYDPQFQGKASITADTSSNTAYLQLSSLTSEDTAVYYCASDYYGSKGYLDVWGAGTTVTVSS
VL: QIVLTQSPTIMSASPGEKVTITCSASSSVSYMHWFQQKPGTSPKLWIYSTSNLASGVPARFGGSRSGTSYSLTISRMEAEDAATYYCQQRSSYPFTFGSGTKLEIK
notes: Purified mouse monoclonal from a hybridoma; also called anti-ICOS antibody (2M13); anti-ICOS mAb 2M13
Question: Does B2 bind [4]?
Answer: Result: binds

B3: 2M19 (antibody, V domains shown)
VH: EVQLQQSGAELVRSGASVKLSCTTSAFNIIDYYMHWVIQRPEQGLEWIAWIDPENGDPEYAPKFQDKATMTTDTSSNTAYLQLSSLTSEDTAVYYCTAWRGFAYWGQGTLVTVSA
VL: DVVMTQTPLSLPVSLGDQASISCRSSQSLVHSNGNTYLHWYLQKPGQSPKLLIYKVSNRFSGVPDRFSGSGSGTDFTLKISRVEAEDLGVYFCSQSIHVPPTFGGGTKLEIK
notes: Purified mouse monoclonal from a hybridoma; also called anti-ICOS mAb 2M19
Question: Does B3 bind [4]?
Answer: Result: binds

B4: 35A9 (antibody, V domains shown)
VH: EVQLVESGGGLVKPGGSLKLSCAASGFTFSDYWMDWVRQAPGKGLEWVGNIDEDGSIAEYSPFVKGRFTISRDNVKNTLYLQMNSVKSEDTATYYCSRWGRFAFDSWGQGTLVTVSS
VL: DIVMTQSPSSLAVSAGDRVTINCKSSQSLLSGSFNYLTWYQQKTGQAPKLLIFYASTRHTGVPDRFMGSGSGTDFTLTINSFQTEDLGDYYCHHHYNAPPTFGPGTKLELR
notes: Armenian hamster monoclonal tested as IgG; also called hamster anti-ICOS 35A9
Question: Does B4 bind [5]?
Answer: Result: binds

Question: Does B4 bind [6]?
Answer: Result: binds

Question: And the Kd [7]?
Answer: Its Kd is < 0.001 nM.

Question: And the koff [7]?
Answer: Its koff is < 1e-07 s⁻¹.

Question: What about the kon [7] of the same binder?
Answer: Its kon is 1.01e+06 M⁻¹ s⁻¹.

Question: What about the Kd [8] of the same binder?
Answer: The Kd was < 0.001 nM.

Question: And the koff [8]?
Answer: Its koff is < 1e-07 s⁻¹.

Question: What about the kon [8] of the same binder?
Answer: The kon was 740000 M⁻¹ s⁻¹.

Question: Does B4 bind [9]?
Answer: Result: no binding

Question: Does B4 bind [10]?
Answer: Result: no binding

Question: Does B4 bind [11]?
Answer: Result: no binding

Question: Does B4 bind [12]?
Answer: Result: no binding

Question: Does B4 bind [13]?
Answer: Result: no binding

Question: Does B4 bind [14]?
Answer: Result: no binding

Question: Does B4 bind [15]?
Answer: Result: no binding

Question: Does B4 bind [16]?
Answer: Result: no binding

Question: And the Kd [17]?
Answer: Its Kd is 2.45 nM.

Question: And the koff [17]?
Answer: Its koff is 0.000438 s⁻¹.

Question: And the kon [17]?
Answer: Its kon is 178000 M⁻¹ s⁻¹.

Question: What about the koff [18] of the same binder?
Answer: Its koff is < 1e-07 s⁻¹.

Question: And the kon [18]?
Answer: The kon was 625000 M⁻¹ s⁻¹.

Question: And the Kd [19]?
Answer: Its Kd is < 0.001 nM.
